This note sets out measurements from patent US20040058393A1 (published 2004).

Experiment [1] addresses T1, human Integrin Associated Protein (IAP) expressed on mouse leukemia cell line L1210 (human, UniProt Q08722 19-323).
T1 construct: whole, on cells; also called human IAP; hIAP/L1210
Description: flow cytometry, COS7 supernatant on hIAP/L1210 cells, anti-FLAG and FITC anti-mouse IgG. Here is the method:
Flow cytometry was performed using the aforementioned COS7 cells culture supernatant to measure the binding to the antigen. The culture supernatant of the COS7 cells expressing the reconstructed single chain Fv of antibody MABL-2 or the culture supernatant of COS7 cells transformed with pCHO1 vector as a control was added to 2×10⁵ cells of the mouse leukemia cell line L1210 expressing human Integrin Associated Protein (IAP) or the cell line L1210 transformed with pCOS1 as a control. After incubating on ice and washing, the mouse anti-FLAG antibody (SIGMA) was added. Then the cells were incubated and washed. Then, the FITC labeled anti-mouse IgG antibody (BECTON DICKINSON) was added thereto and the cells were incubated and washed again. Subsequently, the fluorescence intensity was measured using the FACScan apparatus (BECTON DICKINSON).
Flow cytometry was performed using the culture supernatants of COS7 cells prepared in Example 6.3 (1) to measure the binding of the MABL2-scFVs and sc(Fv)₂ to human Integrin Associated Protein (IAP) antigen. The culture supernatants to be tested or a culture supernatant of COS7 cells as a control was added to 2×10⁵ cells of the mouse leukemia cell line L1210 expressing human IAP. After incubating on ice and washing, 10 μg/mL of the mouse anti-FLAG antibody (SIGMA) was added and then the cells were incubated and washed. Then, the FITC labeled anti-mouse IgG antibody (BECTON DICKINSON) was added thereto and the cells were incubated and washed again. The fluorescence intensity was measured using the FACScan apparatus (BECTON DICKINSON). […] (see FIGS. 40a and 40b).
Background: Flow cytometry measures light scatter and fluorescence of single cells or particles in a stream.

Experiment [2] has as its target T2, secretion-type human IAP antigen (human, UniProt Q08722 19-142, limits assumed).
T2 construct: also called human IAP antigen (soluble, COS7 supernatant)
As to the kind of experiment: competitive ELISA on captured secretion-type human IAP; competitor biotinized MABL-2. Here is the method:
The binding activity of the reconstructed single chain Fv of antibody MABL-2 was measured based on the inhibiting activity against the binding of mouse monoclonal antibodies to the antigen.
The anti-FLAG antibody adjusted to 1 μg/ml was added to each well on 96-well plate and incubated at 37° C. for 2 hours. After washing, blocking was performed with 1% BSA-PBS. After incubating and washing at a room temperature, the culture supernatant of COS7 cells into which the secretion-type human IAP antigen gene (SEQ ID No. 26) had been introduced was diluted with PBS into twofold volume and added to each well. After incubating and washing at a room temperature, a mixture of 50 μl of the biotinized MABL-2 antibody adjusted to 100 ng/ml and 50 μl of sequentially diluted supernatant of the COS7 cells expressing the reconstructed single chain Fv of antibody MABL-2 were added into each well. After incubating and washing at a room temperature, the alkaline phosphatase-conjugated streptoavidin (Zymed) was added into each well. After incubating and washing at a room temperature, the substrate solution (SIGMA) was added and absorbance of the reaction mixture in each well was measured at 405 nm.
In general terms: An ELISA detects its analyte on a solid surface through an enzyme-linked reagent.

Experiment [3] addresses T3, human TPO receptor (MPL) expressed on Ba/F3 cells (human, UniProt P40238 26-635).
T3 sequence (looked up): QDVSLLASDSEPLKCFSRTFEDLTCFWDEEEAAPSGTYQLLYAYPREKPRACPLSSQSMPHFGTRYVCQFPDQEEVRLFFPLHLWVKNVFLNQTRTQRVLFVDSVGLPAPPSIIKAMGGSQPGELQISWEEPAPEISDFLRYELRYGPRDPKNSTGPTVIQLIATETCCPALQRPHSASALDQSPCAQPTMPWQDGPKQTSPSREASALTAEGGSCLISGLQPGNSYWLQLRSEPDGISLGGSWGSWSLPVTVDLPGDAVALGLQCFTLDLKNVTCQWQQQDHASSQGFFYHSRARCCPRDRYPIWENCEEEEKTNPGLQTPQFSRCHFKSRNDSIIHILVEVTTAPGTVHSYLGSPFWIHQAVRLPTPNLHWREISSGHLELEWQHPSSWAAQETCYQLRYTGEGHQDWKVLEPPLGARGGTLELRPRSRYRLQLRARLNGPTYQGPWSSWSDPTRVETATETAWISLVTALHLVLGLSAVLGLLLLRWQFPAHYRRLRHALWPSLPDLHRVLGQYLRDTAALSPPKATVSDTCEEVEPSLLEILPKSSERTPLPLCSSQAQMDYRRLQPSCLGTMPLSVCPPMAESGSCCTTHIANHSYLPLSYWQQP
Description: cell-based or functional assay.

Experiment [4] concerns the target T1, human Integrin Associated Protein (IAP) …. Description: flow cytometry, COS7 supernatant on hIAP/L1210 cells, FITC anti-human IgG. How it is done: Flow cytometry was performed using the aforementioned culture supernatant of COS7 cells to measure binding to the antigen. The culture supernatant of the COS7 cells expressing the chimera MABL-1 antibody or the COS7 cells expressing the chimera MABL-2 antibody, or human IgG antibody (SIGMA) as a control was added to 4×10⁵ cells of mouse leukemia cell line L1210 expressing human IAP and incubated on ice. After washing, the FITC-labeled anti-human IgG antibody (Cappel) was added thereto. After incubating and washing, the fluorescence intensity thereof was measured using the FACScan apparatus (BECTON DICKINSON).

Numbering of substitutions follows the chain as printed.

T1 sequence (Q08722 19-323): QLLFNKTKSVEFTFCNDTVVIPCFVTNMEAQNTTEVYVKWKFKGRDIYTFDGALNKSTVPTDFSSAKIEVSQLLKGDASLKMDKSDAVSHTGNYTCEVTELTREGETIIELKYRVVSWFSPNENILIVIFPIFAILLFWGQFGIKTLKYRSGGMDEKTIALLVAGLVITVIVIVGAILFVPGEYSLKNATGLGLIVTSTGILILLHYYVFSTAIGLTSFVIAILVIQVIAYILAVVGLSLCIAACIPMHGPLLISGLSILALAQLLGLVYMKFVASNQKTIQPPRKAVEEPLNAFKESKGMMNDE
T2 sequence (Q08722 other isoform, or with tags, fused parts or gaps limits assumed): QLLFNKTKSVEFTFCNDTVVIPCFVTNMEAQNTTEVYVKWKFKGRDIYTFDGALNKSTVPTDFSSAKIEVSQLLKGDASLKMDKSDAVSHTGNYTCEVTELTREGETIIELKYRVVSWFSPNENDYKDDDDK

B1: antibody MABL-2 sc(Fv)2 (scFv)
scFv: QVQLQQSGPELVKPGASVKMSCKASGYTFANHVIHWVKQKPGQGLEWIGYIYPYNDGTKYNEKFKDKATLTSDKSSTTAYMDLSSLASEDSAVYYCARGGYYTYDDWGQGTTLTVSSGGGGSGGGGSGGGGSDVVMTQSPLSLPVSLGDQASISCRSSQSLVHSNGKTYLHWYLQKPGQSPKLLIYKVSNRFSGVPDRFSGSGSVTDFTLMISRVEAEDLGVYFCSQSTHVPYTFGGGTKLEIKGGGGSGGGGSGGGGSVDSQVQLQQSGPELVKPGASVKMSCKASGYTFANHVIHWVKQKPGQGLEWIGYIYPYNDGTKYNEKFKDKATLTSDKSSTTAYMDLSSLASEDSAVYYCARGGYYTYDDWGQGTTLTVSSGGGGSGGGGSGGGGSDVVMTQSPLSLPVSLGDQASISCRSSQSLVHSNGKTYLHWYLQKPGQSPKLLIYKVSNRFSGVPDRFSGSGSVTDFTLMISRVEAEDLGVYFCSQSTHVPYTFGGGTKLEIKDYKDDDDK
notes: Single chain bivalent antibody; also called pCHOM2(Fv)2
Turning to B1, in experiment [1], the binding result is recorded as “binds”.

B2: reconstructed single chain Fv of antibody MABL-2 (pCHOM2, COS7 culture supernatant) (scFv)
scFv: QVQLQQSGPELVKPGASVKMSCKASGYTFANHVIHWVKQKPGQGLEWIGYIYPYNDGTKYNEKFKDKATLTSDKSSTTAYMDLSSLASEDSAVYYCARGGYYTYDDWGQGTTLTVSSGGGGSGGGGSGGGGSDVVMTQSPLSLPVSLGDQASISCRSSQSLVHSNGKTYLHWYLQKPGQSPKLLIYKVSNRFSGVPDRFSGSGSVTDFTLMISRVEAEDLGVYFCSQSTHVPYTFGGGTKLEIKDYKDDDDK
notes: Unpurified COS7 supernatant; also called MABL2-scFv; MABL2-scFv/COS7
On to B2, for which the binding result in experiment [2] and in experiment [1] was “binds” in each case.

B3: MABL2-scFv <HL-0> (scFv)
scFv: QVQLQQSGPELVKPGASVKMSCKASGYTFANHVIHWVKQKPGQGLEWIGYIYPYNDGTKYNEKFKDKATLTSDKSSTTAYMDLSSLASEDSAVYYCARGGYYTYDDWGQGTTLTVSSDVVMTQSPLSLPVSLGDQASISCRSSQSLVHSNGKTYLHWYLQKPGQSPKLLIYKVSNRFSGVPDRFSGSGSVTDFTLMISRVEAEDLGVYFCSQSTHVPYTFGGGTKLEIKDYKDDDDK
notes: COS7 culture supernatant; also called CF2HL-0/pCOS1
As for B3, in experiment [1], the binding result is “binds”.

B4: reconstructed 12B5 single chain Fv (sc12B5), culture supernatant of COS-7 cells (scFv)
scFv: QVQLVQSGGGLVRPGGSLSLSCAVSGITLRTYGMHWVRQAPGKGLEWVAGISFDGRSEYYADSVQGRFTISRDSSKNTLYLQMNSLRAEDTAVYYCARGAHYGFDIWGQGTMVTVSSGGGGSGGGGSGGGGSDIQMTQSPSTLSASIGDRVTITCRASEGIYHWLAWYQQKPGKAPKLLIYKASSLASGAPSRFSGSGSGTDFTLTISSLQPDDFATYYCQQYSNYPLTFGGGTKLEIKDYKDDDDK
B4: in experiment [3], the “ED50, TPO-like agonist activity (proliferation of BaF/mpl cells, WST-8)” value (“ED50 … (proliferation of BaF/mpl cells, WST-8)” below) came to 75 nM.

B5: sc12B5 dimer (scFv)
scFv: B4 scFv
As to B5, in experiment [3], the “ED50 … (proliferation of BaF/mpl cells, WST-8)” value stood at 10.1 nM and the “fold agonist activity against monovalent sc12B5” value is about 400 fold.

B6: sc12B5 monomer (scFv)
scFv: B4 scFv
For B6, the “ED50 … (proliferation of BaF/mpl cells, WST-8)” value in experiment [3] was 4440 nM.

B7: chimera MABL-1 antibody (antibody, V domains shown)
VH: QVQLQQSGPDLVKPGASVKMSCKASGYTFVNHVMHWVKQKPGQGLEWIGYIYPYNDGTKYNEKFKGKATLTSEKSSSAAYMELSSLASEDSAVYYCARGGYYSYDDWGQGTTLTVSS
VL: DVVMTQTPLSLPVSLGDQASISCRSSQSLLHSKGNTYLQWYLQKPGQSPKLLIYKVSNRFSGVPDRFSGSGSGTDFTLKISRVEAEDLGVYFCSQSTHVPYTSGGGTKLEIK
notes: Mouse V regions cloned into HEF-gamma and HEF-kappa vectors with human C regions; COS7 culture supernatant
For B7, the binding result in experiment [4] is reported as “binds”.

B8: chimera MABL-2 antibody (antibody, V domains shown)
VH: B7 VH with D10E, V30A, M34I, G66D, E73D, S77T, A78T, E82D, S103T
VL: B7 VL with T7S, L30V, K33N, N35K, Q39H, G73V, K79M, S103F
notes: as for B7
Turning to B8, in experiment [4], the binding result was “binds”.

B9: antibody 12B5 (IgG) (antibody, V domains shown)
VH: QVQLVQSGGGLVRPGGSLSLSCAVSGITLRTYGMHWVRQAPGKGLEWVAGISFDGRSEYYADSVQGRFTISRDSSKNTLYLQMNSLRAEDTAVYYCARGAHYGFDIWGQGTMVTVSS
VL: DIQMTQSPSTLSASIGDRVTITCRASEGIYHWLAWYQQKPGKAPKLLIYKASSLASGAPSRFSGSGSGTDFTLTISSLQPDDFATYYCQQYSNYPLTFGGGTKLEIK
With B9, in experiment [3], the “ED50 … (proliferation of BaF/mpl cells, WST-8)” value was 29 nM.

B10: 12B5Fab (Fab, V domains shown)
VH: B9 VH
VL: B9 VL
For B10, in experiment [3], the “ED50 … (proliferation of BaF/mpl cells, WST-8)” value was found to be 34700 nM.

B11: MABL2-scFv <LH-0> (scFv)
scFv: DVVMTQSPLSLPVSLGDQASISCRSSQSLVHSNGKTYLHWYLQKPGQSPKLLIYKVSNRFSGVPDRFSGSGSVTDFTLMISRVEAEDLGVYFCSQSTHVPYTFGGGTKLEIKQVQLQQSGPELVKPGASVKMSCKASGYTFANHVIHWVKQKPGQGLEWIGYIYPYNDGTKYNEKFKDKATLTSDKSSTTAYMDLSSLASEDSAVYYCARGGYYTYDDWGQGTTLTVSSDYKDDDDK
notes: COS7 culture supernatant; also called CF2LH-0/pCOS1
In the case of B11, the binding result in experiment [1] is given as “binds”.
